Measured values as given in patent publication US20220259593A1, “CONTROL OF MAMMALIAN GENE DOSAGE USING CRISPR” (The Regents of the University of California, priority 2019, published 2022).

These molecules were tested on K562 CRISPRi cells (assay: Constant region variant library pooled growth screen, K562). Conditions: sgRNA constant region variants; activity relative to the original, un-modified constant region cr995.
Assay type: cell-based, human
Outline: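 Growth screens in K562 CRISPRi cells were harvested 4-8 days post-selection at >2000× library coverage. Each variant's phenotype was referenced to the unmodified constant region with the same targeting sequence.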

| Molecule | Mean relative activity |
| --- | --- |
| cr691 (nucleic acid, listed as DNA, chemistry not fully specified) guide: GTTTAAGAGCTAAGCTGGAAACAGCATAGCAAGTTTAAATAAGGCTAGTCCGTTATCAACTTGAAAAAGTGGGCCCGAGTCGGGCCT | 1.038 |
| cr580 (nucleic acid, listed as DNA, chemistry not fully specified) guide: GTTTAAGAGCTAAGCTGGAAACAGCATAGCAAGTTTAGATAAGGCTAGTCCGTTATCAACTTGAAAAAGTGGCACCGAGTCGGTGCT | 0.1076 |
| cr796 (nucleic acid, listed as DNA, chemistry not fully specified) guide: GTTTAAGAGCTAAGCTGGAAACAGCATAGCAAGTTAAAATAAGGCTAGTCCGTTATCAACTTGAAAAAGTGGCACCGAGTCGGTGCT | 0.096 |
| cr084 (nucleic acid, listed as DNA, chemistry not fully specified) guide: GTCTGAGAGCTAAGCTGGAAACAGCATAGCAAGTTTAAATAAGGCTAGTCCGTTATCAACTTGAAAAAGTGGCACCGAGTCGGTGCT | 0.09372 |
| cr453 (nucleic acid, listed as DNA, chemistry not fully specified) guide: GTTTAAGAGCTAAGCTGGAAACAGCATAGCAAGTTTAACTAAGGCTAGTCCGTTATCAACTTGAAAAAGTGGCACCGAGTCGGTGCT | 0.09528 |
| cr290 (nucleic acid, listed as DNA, chemistry not fully specified) guide: GTTTAAGAGCTAAGCTGGAAACAGCATAGCAAGTTTAAATAAGGCTAGTCCATTATCAACTTGAAAAAGTTGCACCGAGTCGGTGCT | 0.1027 |
| cr411 (nucleic acid, listed as DNA, chemistry not fully specified) guide: GTTTAAGAGCTAAGCTGGAAACAGCATAGCAAGTTTAAATAAGACTAGTCCGTTATCAACTTGAAAAAGTGGCACCGAGTCGGTGCT | 0.1086 |
| cr727 (nucleic acid, listed as DNA, chemistry not fully specified) guide: GTTTAAGAGCTAAGCTGGAAACAGCATAGCAAGTTTAAATAAGGCTAGTCCGTTATCAACTTGAAAAAGTGTCGCCGAGTCGGCGAT | 1.037 |
| cr087 (nucleic acid, listed as DNA, chemistry not fully specified) guide: CTTTGAGAGCTAAGCTGGAAACAGCATAGCAAGTTTAAATAAGGCTAGTCCGTTATCAACTTGAAAAAGTGGCACCGAGTCGGTGCT | 0.1041 |
| cr538 (nucleic acid, listed as DNA, chemistry not fully specified) guide: GTTTAAGAGCTAAGCTGGAAACAGCATAGCAAGCTTAAATAAGACTAGTTCGTTATCAACTTGAAAAAGTGGCACCGAGTCGGTGCT | 0.1104 |
| cr513 (nucleic acid, listed as DNA, chemistry not fully specified) guide: GTTTAAGAGCTAAGCTGGAAACAGCATAGCAACTTTAAATAAGGCTAGTCCGTTATCACCTTGAAAAAGGGGCACCGAGTCGGTGCT | 0.0947 |
| cr062 (nucleic acid, listed as DNA, chemistry not fully specified) guide: GTTCAAGTGCTAAGCTGGAAACAGCATAGCAAGTTTAAATAAGGCTAGTCCGTTATCAACTTGAAAAAGTGGCACCGAGTCGGTGCT | 0.1003 |
| cr821 (nucleic acid, listed as DNA, chemistry not fully specified) guide: GTTTAAGAGCTAAGCTGGAAACAGCGTAGCAAGTTTAAATAAGGCTAGTCCGTTATCAACTTGAAAAAGTGGCACCGAGTCGGTGCT | 1.038 |
| cr401 (nucleic acid, listed as DNA, chemistry not fully specified) guide: GTTTAAGAGCTAAGCTGGAAACAGCATAGCAAGTTTAAATAAGGCTAGTCCGTTATCAACTTGAAAAAGTGGCTCCGAGTCTGCGCT | 0.09781 |
| cr288 (nucleic acid, listed as DNA, chemistry not fully specified) guide: GTTTAAGAGCTAAGCTGGAAACAGCATAGCAACTTTAAATAAGGCTAGTCCGTTATCAACTGGAAACAGTGGCACCGAGTCGGTGCT | 0.1016 |

Same assay, conditions: sgRNA constant region variants; activity relative to the unmodified constant region cr995

| Molecule | Mean relative activity |
| --- | --- |
| cr761 (nucleic acid, listed as DNA, chemistry not fully specified) guide: GTTTAAGAGCTAAGCTGGAAACAGCATAGCTAGTTTAAATAAGGCTAGTCCGTTGTCTACTTGAAAAAGTGGCACCGAGTCGGTGCT | 0.1369 |
| cr490 (nucleic acid, listed as DNA, chemistry not fully specified) guide: GTTTAAGAGCTAAGCTGGAAACAGCATAGCAAGTTTAAATAAGGCTAGTCCGTTATCAAATTGAAAAATTGGCGCCCAGTGGGCGCT | 0.1317 |
| cr259 (nucleic acid, listed as DNA, chemistry not fully specified) guide: GTTTAAGAGCTAAGCTGGAAACAGCATAGCAAGTTTAAATAAGGCTAGTCCGTTATGTACTTCAAAAAGTGGCACCGAGTCGGTGCT | 0.1243 |
| cr091 (nucleic acid, listed as DNA, chemistry not fully specified) guide: GTTTTACAGCTAAGCTGGAAACAGCATAGCAAGTTTAAATAAGGCTAGTCCGTTATCAACTTGAAAAAGTGGCACCGAGTCGGTGCT | 0.1366 |
| cr274 (nucleic acid, listed as DNA, chemistry not fully specified) guide: GTTTAAGAGCTAAGCTGGAAACAGCATAGCAACTTTAAATAAGGCTAGTCCGTTATCAACCTGAAAAGGTGGCACCGAGTCGGTGCT | 0.1303 |
| cr257 (nucleic acid, listed as DNA, chemistry not fully specified) guide: GTTTAAGAGCTAAGCTGGAAACAGCATAGCAAGTTTAAATCAGGCTAGTCCGTTATCAACTTGAAAAAGTTGCACCGAGTCGGTGCT | 0.1109 |
| cr395 (nucleic acid, listed as DNA, chemistry not fully specified) guide: GTTTAAGAGCTAAGCTGGAAACAGCATAGCAAGTTTAAATATGGCTAGTCCGTTATCAACTTGAAAAAGTAGCACCGAATCGGTGCT | 0.1397 |
| cr872 (nucleic acid, listed as DNA, chemistry not fully specified) guide: GTTTAAGAGCTAAGCTGGAAACAGCATAGCAAGTTTAAATAAGGCTATTCCGTTATCAACTTGAAAAAGTGGCACCGAGTCGGTGCT | 0.1317 |
| cr881 (nucleic acid, listed as DNA, chemistry not fully specified) guide: GTTTAAGAGCTAAGCTGGAAACAGCATAGCAAGTTTAAATAAGGCTAGTCCTTTAACAACTTGAAAAAGTGGCACCGAGTCGGTGCT | 0.1367 |
| cr390 (nucleic acid, listed as DNA, chemistry not fully specified) guide: GTTTAAGAGCTAAGCTGGAAACAGCATAGCAAATTTAAATAAGGCTAGTCCGTTATCAACTTGAAAAAGTAGCACCGAGTCGGTGCT | 0.1354 |
| cr059 (nucleic acid, listed as DNA, chemistry not fully specified) guide: GGTTAAAAGCTAAGCTGGAAACAGCATAGCAAGTTTAAATAAGGCTAGTCCGTTATCAACTTGAAAAAGTGGCACCGAGTCGGTGCT | 0.1106 |
| cr560 (nucleic acid, listed as DNA, chemistry not fully specified) guide: GTTTAAGAGCTAAGCTGGAAACAGCATAGCAAGCTTAAATAAGGCTAGTCCGTTATCAACTTGAAAAAGTGGCACTGAGTCAGTGCT | 0.1347 |
| cr461 (nucleic acid, listed as DNA, chemistry not fully specified) guide: GTTTAAGAGCTAAGCTGGAAACAGCATAGCAAGTTTAAATAAGGCTAGTCCTTAATCAACTTGAAGAAGTGGCACCGAGTCGGTGCT | 0.1147 |
| cr798 (nucleic acid, listed as DNA, chemistry not fully specified) guide: GTTTAAGAGCTAAGCTGGAAACAGCATAGCAAGTTTAAATAAGGATATTCCGTTATCAACTTGAAAAAGTGGCATCCAGTGGATGCT | 0.1361 |
| cr089 (nucleic acid, listed as DNA, chemistry not fully specified) guide: GTTTATAAGCTAAGCTGGAAACAGCATAGCAAGTTTAAATAAGGCTAGTCCGTTATCAACTTGAAAAAGTGGCACCGAGTCGGTGCT | 0.1183 |
